Consider three molecules from US20230338465A1 (VITRUVIAE, published 2023).

One may read the EC50 as the concentration giving half of the maximal effect. Read a high EC50 as lower potency in that assay.

“And” between values parts separate entries of the source, which are not always exact repeats. Equal values may be shown once. Read-outs that look alike come from different tables or passages of the source.

What all share (assay): ELISA, 2.5 mM CaCl2
A general note: In an ELISA, binding on a coated surface is turned into a signal by an enzyme label.

For assay [1], the target named is Chikungunya Virus E1 (Chikungunya virus).
Assay [2] deals with T1, Zika Virus Envelope Protein (Zika virus).
T1 chain: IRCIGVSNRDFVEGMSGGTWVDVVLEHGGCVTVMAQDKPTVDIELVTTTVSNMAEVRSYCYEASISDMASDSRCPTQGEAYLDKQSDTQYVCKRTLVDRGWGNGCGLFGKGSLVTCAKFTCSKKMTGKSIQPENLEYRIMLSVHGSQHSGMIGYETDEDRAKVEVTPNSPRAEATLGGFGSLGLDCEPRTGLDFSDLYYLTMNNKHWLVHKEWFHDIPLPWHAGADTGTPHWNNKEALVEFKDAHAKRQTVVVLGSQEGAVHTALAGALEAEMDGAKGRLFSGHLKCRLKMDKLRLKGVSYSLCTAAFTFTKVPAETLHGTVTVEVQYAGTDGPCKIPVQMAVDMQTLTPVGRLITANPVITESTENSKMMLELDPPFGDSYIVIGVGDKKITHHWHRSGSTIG

Assay [3] has as its target T1, Zika Virus Envelope Protein.

B1: VP025-CT (co-transfected product of genes TM-G4-A-DC and CT-G4-B-DC, heterodimer mixture) (Fc fusion)
chain 1: SVKVGGEAGPSVTLPCHYSGAVTSMCWNRGSCSLFTCQNGIVWTNGTHVTYRKDTRYKLLGDLSRRDVSLTIENTAVSDSGVYCCRVEHRGWFNDMKITVSLEIVGGGGSGGGGSGGGGSKYGPPCPPCPAPEAAGGPSVFLFPPKPKDTLMISRTPEVTCVVVDVSQEDPEVQFNWYVDGVEVHNAKTKPREEQFNSTYRVVSVLTVLHQDWLNGKEYKCAVSNKGLPSSIEKTISKCKGQPREPQVYTLPPSQEEMTKNQVSLTCLVKGFYPSDIAVEWESNGQPENNYKTTPPVLDSDGSFFLYSRLTVDKSRWQEGNVFSCSVMHEALHNHYTQKSLSLSLGK
chain 2: ERLCHPCPWEWTFFQGNCYFMSNSQRNWHDSITACKEVGAQLVVIKSAEEQNFLQLQSSRSNRFTWMGLSDLNQEGTWQWVDGSPLLPSFKQYWNRGEPNNVGEEDCAEFSGNGWNDDKCNLAKFWICKKSAASCSGGGGSGGGGSGGGGSKYGPPCPPCPAPEAAGGPSVFLFPPKPKDTLMISRTPEVTCVVVDVSQEDPEVQFNWYVDGVEVHNAKTKPREEQFNSTYRVVSVLTVLHQDWLNGKEYKCAVSNKGLPSSIEKTISKCKGQPREPQVYTLPPSQEEMTKNQVSLTCLVKGFYPSDIAVEWESNGQPENNYKTTPPVLDSDGSFLLYSKLTVDKSRWQEGNVFSCSVMHEALHNHYTQKSLSLSLGK
notes: also called VP025-CT (heterodimer mixture)
For B1, the concentration giving a half-maximal response (EC50) in assay [1] was 10.2 µg/mL and 122 nM.

B2: VP019-F2 (multimer fraction F2 of VP019, V-TIM1-1 with V-IGG4-ADC-A-Fc) (Fc fusion)
chain: B1 chain 1
notes: also called TM-G4-A-DC; VIT-307
Take B2: the EC50 in assay [2] is 1 µg/mL; in assay [3] it was 12.2 nM.

B3: VP020 (V-CTLD-1 with V-IGG4-ADC-B-Fc) (Fc fusion)
chain: B1 chain 2
notes: also called CT-G4-B-DC; VIT-308
Turning to B3, the EC50 in assay [2] was determined as 7.4 µg/mL; in assay [3], 85.1 nM.
